T1: NS3-GST (rice stripe virus (RSV))
T1 chain: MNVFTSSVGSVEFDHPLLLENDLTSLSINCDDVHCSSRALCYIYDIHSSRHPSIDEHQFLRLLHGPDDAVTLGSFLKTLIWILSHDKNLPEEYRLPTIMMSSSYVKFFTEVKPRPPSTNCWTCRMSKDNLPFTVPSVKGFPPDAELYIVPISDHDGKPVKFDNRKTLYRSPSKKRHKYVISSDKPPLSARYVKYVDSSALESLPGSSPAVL

T2: CP-GST (rice stripe virus (RSV), UniProt P68559 1-322)
T2 chain: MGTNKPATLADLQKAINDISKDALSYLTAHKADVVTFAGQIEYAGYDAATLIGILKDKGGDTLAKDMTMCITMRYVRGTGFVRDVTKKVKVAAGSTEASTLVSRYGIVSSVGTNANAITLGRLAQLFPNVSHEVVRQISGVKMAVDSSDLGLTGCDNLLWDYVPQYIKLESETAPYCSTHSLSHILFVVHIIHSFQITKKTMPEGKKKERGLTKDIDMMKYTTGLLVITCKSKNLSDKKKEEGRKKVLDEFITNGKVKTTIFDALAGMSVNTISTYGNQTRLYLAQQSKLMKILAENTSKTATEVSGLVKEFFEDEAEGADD

B1: OsVIRK1C-His (domain or fragment)
chain: LCKRNRKPHKHMMIGSVDLGDEDEMRGSESLLYDLSTLRAATANFSEENKLGEGGFGPVYKGTLQNGQEIAVKRLSATSHQGQLEMKNEVVLVAKLQHKNLVRLLGCCIEEREKILVYEFLCNKSLDTILFDTSRQQDLNWEQRFKIIEGIGRGLLYLHEDSRLKIIHRDLKASNILLDVDMNPKISDFGLAKLFNMEASVANTSRIAGTYGYMAPEYALHGIFSAKSDVFSYGVLLLEIVTGRRNTCLHDSEDLLAFVWRHWSRGGAGELLDGCPAAGRRPQELLRCIHVGLLCVQEDPQLRPGMAAVVVMLNSRSVTLPAPSAPAFVSASRGIGGSPPPAAAAGDAPARSTDHEVPTAAR
modifications: labelling dye (NanoTemper) in the MST assay
B2: OsVIRK1N-His (domain or fragment)
chain: MAPPPPSPPCRPRVKPERALLCFSLLLLLTATTANASITDCPTTSSTNSSHVDDGAFGANLRALLSSLSAAAAASSSGFAENATGAAPDTAYGLAQCRGGIVGGGNGTSCRSCLDDSVRDAAKACPGEKSAVIISDYCLVRYSNASFAGAADERTVKLWWNTDNATQPERFKSLLGTLMGNLTDAAARASSPLMFAAGETDLPPFTKIYGMAQCTRDLAAGDCYRCLVGAVNNIPKCCDGKQGGQVITRSCSIRFEVYPFFDA
modifications: labelling dye (NanoTemper) in the MST assay

Assays:
NS3-GST = target: T1, NS3-GST; assay: MST
CP-GST = target: T2, CP-GST; assay: MST

Binder	Kd (NS3-GST) [µM]	Kd (CP-GST) [µM]
B1	4.25	0.704
B2	5.2	1.29

From PMC12708648 (2025)
